From patent US20140274782A1 (Stanford University, published 2014)
Positions count from the first letter of the chain named.

What was measured:
[1] = molecular target: H3 from HeLa nuclear extract (UniProt P68431 2-136); experiment: GSH-Sepharose pull-down from HeLa nuclear extract, Western blot
[2] = molecular target: T1, 3× Flag-SIRT1 methylated by G9a at lysine 622 (293T cells) (UniProt Q96EB6 1-747, methyl-lysine at K622 (state not stated)); experiment: GSH-Sepharose pull-down from 293T nuclear extract, anti-Flag Western blot
T1 construct: also called methylated SIRT1; not shown: 3× Flag tag of p3×FLAG-CMV-7
T1 sequence (looked up): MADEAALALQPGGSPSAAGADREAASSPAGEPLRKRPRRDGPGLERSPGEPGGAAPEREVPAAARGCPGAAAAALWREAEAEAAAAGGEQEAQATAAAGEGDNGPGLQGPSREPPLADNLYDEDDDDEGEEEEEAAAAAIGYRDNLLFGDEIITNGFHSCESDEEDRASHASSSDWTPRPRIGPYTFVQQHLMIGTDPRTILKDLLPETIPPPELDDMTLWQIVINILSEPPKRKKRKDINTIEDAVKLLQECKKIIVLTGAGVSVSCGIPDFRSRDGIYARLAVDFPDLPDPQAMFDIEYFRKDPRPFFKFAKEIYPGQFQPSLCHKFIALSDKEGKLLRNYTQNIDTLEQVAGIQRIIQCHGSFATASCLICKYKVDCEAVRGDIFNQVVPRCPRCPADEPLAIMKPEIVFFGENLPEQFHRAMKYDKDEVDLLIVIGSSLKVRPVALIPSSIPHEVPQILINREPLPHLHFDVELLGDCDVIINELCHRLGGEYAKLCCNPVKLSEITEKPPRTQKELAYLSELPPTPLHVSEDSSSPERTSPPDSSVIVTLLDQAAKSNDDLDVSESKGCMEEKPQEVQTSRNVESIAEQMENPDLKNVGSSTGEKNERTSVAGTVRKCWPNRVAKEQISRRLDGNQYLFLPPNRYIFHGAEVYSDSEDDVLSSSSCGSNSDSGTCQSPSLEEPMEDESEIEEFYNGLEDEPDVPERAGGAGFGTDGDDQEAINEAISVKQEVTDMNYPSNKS

[3] = molecular target: T2, RelA mono-methylated at lysine 310 by SETD6 (293T cells) (UniProt Q04206 1-551, monomethyl-lysine at K310); experiment: GSH-Sepharose pull-down from 293T nuclear extract, Western blot
T2 construct: also called RelAK310me1; methylated RelA

[4] = molecular target: T3, biotinylated di-methylated H4K20 peptide (H4 amino acids 1-23) (UniProt P62805 2-24, dimethyl-lysine at K20; biotinylated); experiment: peptide pull-down, Western blot
T3 construct: range 1-23; also called H4K20me2

[5] = molecular target: T4, biotinylated mono-methylated H4K20 peptide (H4 amino acids 1-23) (UniProt P62805 2-24, monomethyl-lysine at K20; biotinylated); experiment: peptide pull-down, Western blot
T4 construct: range 1-23; also called H4K20me1

[6] = molecular target: recombinant H3 dimethylated at lysine 9 by G9a SET domain (UniProt P68431 2-136); experiment: Far Western on in vitro methylation reactions
[7] = molecular target: T5, p53 mono-methylated at lysine 382 by SET8 (UniProt P04637 1-393, monomethyl-lysine at K382); experiment: Far Western on in vitro methylation reactions
T5 construct: also called p53K382me1; monomethylated p53

[8] = molecular target: T6, 3× Flag-SIRT1K622R (UniProt Q96EB6 1-747); experiment: GSH-Sepharose pull-down from 293T nuclear extract, anti-Flag Western blot
T6 construct: not shown: 3× Flag tag of p3×FLAG-CMV-7
T6 sequence (looked up): T1 sequence (looked up) with K622R

[9] = molecular target: T7, RelA carrying K310R substitution (UniProt Q04206 1-551); experiment: GSH-Sepharose pull-down from 293T nuclear extract, Western blot
T7 construct: also called RelAK310R

[10] = molecular target: T8, recombinant p53 carrying K382R substitution (UniProt P04637 1-393); experiment: Far Western on in vitro methylation reactions
T8 construct: also called p53K382R

[11] = molecular target: T5, p53 mono-methylated at lysine 382 by …; experiment: Far Western, α-Flag detection (FIG. 9C)
[12] = molecular target: T3, biotinylated di-methylated H4K20 …; experiment: peptide pull-down, α-Flag Western blot
[13] = molecular target: T4, biotinylated mono-methylated H4K20 …; experiment: peptide pull-down, α-Flag Western blot

B1: GST-tagged 3×MBTD355N (methyllysine-binding mutant) (designed binder)
chain: EEWSSSQPATGEKKECWSWESYLEEQKAITAPVSLFQDSQAVTHNKNGFKLGMKLEGIDPQHPSMYFILTVAEVCGYRLRLHFDGYSECHDFWVNANSPDIHPAGWFEKTGHKLQPPKGYKEEEFSWSQYLRSTRAQAAPKHLFVSQSHSPPPLGFQVGMKLEAVNRMNPSLVCVASVTDVVDSRFLVHFDNWDDTYDYWCDPSSPYIHPVGWCQKQGKPLTPPQDYPDPDNFCWEKYLEETGASAVPTWAFKVRPPHSFLVNMKLEAVDRRNPALIRVASVEDVEDHRIKIHFDGWSHGYDFWIDADHPDIHPAGWCSKTGHPLQPPLGPREPSSASPGG
notes: Negative control; also called GST-3×MBTD355N; point-mutant; not shown: GST tag and PreScission linker of the pGEX6P1 vector at the N end
B1: no binding [1]; no binding [2]; no binding [3]. B1: no binding (tested: 1 µg protein and 1 µg peptide) [4]; no binding (tested: 1 µg protein and 1 µg peptide) [5]; no binding [6]. B1: no binding [7].

B2: GST-tagged 3×MBT (three MBT repeats of L3MBTL1, amino acids 190-530, expressed as a GST fusion) (designed binder, not shown: a dimerising Fc or GST)
chain: B1 chain with N166D
notes: Used in solution (peptide pull-down, Far Western, peptide array) and coupled to GSH-Sepharose (protein pull-down); also called GST-3×MBT; 3xMBT
B2: no binding [8]; no binding [9]; no binding [10].

B3: GST-3× Flag-3×MBTD355N (designed binder, not shown: a dimerising Fc or GST; small tags and cut ends)
chain: B1 chain
B3: no binding [11].

B4: 3× Flag-3×MBTD355N (designed binder)
chain: B1 chain
notes: also called N-terminally Flag-tagged 3×MBTD355N; not shown: made by PreScission cleavage of the GST version
B4: no binding [12]; no binding [13]; no binding [11].

B5: 3×MBTD355N-Flag (C-terminally Flag-tagged 3×MBTD355N) (designed binder, not shown: small tags and cut ends)
chain: B1 chain
B5: no binding [12]; no binding [13].
